Source: publication PMC9344649, “Involvement of MdWRKY40 in the defense of mycorrhizal apple against fusarium solani”

B1: proMdGLU W-box 2 probe (dsDNA)
DNA 1: ATCACAAATAAAATTGATATTTGACCAACTACATGCCACGATCACA
DNA 2: TGTGATCGTGGCATGTAGTTGGTCAAATATCAATTTTATTTGTGAT
B2: proMdGLU W-box 3 probe (dsDNA)
DNA 1: CTTTCCCCCCTATAAATACTTTGACCACCAACTCCCCAATCCTCCA
DNA 2: TGGAGGATTGGGGAGTTGGTGGTCAAAGTATTTATAGGGGGGAAAG

Legend:
MdWRKY40 [1] = target: T1, MdWRKY40 (Malus domestica, UniProt A0A7S5ATZ6 1-302); experiment: EMSA; cold probe weakens binding; EMSA: binding buffer not specified, 24 °C, 30 min; salt and pH not stated; conditions: protein: recombinant; tags: His tag, pET-32a(+) fusion; blunt
MdWRKY40 [2] = target: T1, MdWRKY40; experiment: EMSA; text says not bound; the only printed mutant is of W-box 3, so numbering of 2 and 3 is uncertain; EMSA: binding buffer not specified, 24 °C, 30 min; salt and pH not stated; conditions: protein: recombinant; tags: His tag, pET-32a(+) fusion; blunt

T1 sequence (A0A7S5ATZ6 entry or part of it): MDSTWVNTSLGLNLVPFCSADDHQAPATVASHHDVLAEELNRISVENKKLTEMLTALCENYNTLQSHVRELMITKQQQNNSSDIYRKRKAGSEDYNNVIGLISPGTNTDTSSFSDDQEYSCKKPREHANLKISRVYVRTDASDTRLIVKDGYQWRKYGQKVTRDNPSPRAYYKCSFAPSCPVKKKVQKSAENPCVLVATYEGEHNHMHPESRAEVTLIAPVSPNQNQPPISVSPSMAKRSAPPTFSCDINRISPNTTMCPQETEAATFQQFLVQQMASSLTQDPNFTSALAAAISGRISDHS

| Binder | binding result (MdWRKY40 [1]) | binding result (MdWRKY40 [2]) |
| --- | --- | --- |
| B1 | binds | – |
| B2 | – | no binding |
